Reference: US20050037947A1, “INHIBITION OF DRUG BINDING TO SERUM ALBUMIN” (priority 2003, published 2005)

Target: human serum albumin (Albuminar, Aventis) (human), P02768
Assay: SPR (BIACORE 3000), serum albumin immobilised on CM5 chip, analyte injected; Req divided by molecular weight; reference GnRH-Fc

B1: GnRH peptide (gonadotropin releasing hormone), P01148 24-33 (peptide, UniProt P01148 24-33, looked up)
peptide: QHWSYGLRPG
modifications: not checked
B1 gave a fold more bound (Req/MW) than GnRH-Fc greater than 5 times.
